Results as given in the supplement of paper PMC12764529.
± gives the half width of the 95% confidence interval.

Assay: folding stability dG unfold (combined trypsin and chymotrypsin); higher = more stable
Procedure: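 Folding stability of de novo designed mini-proteins (<80 aa, no Cys; designed by TrROS, TrMRF, ProteinMPNN and the joint model) was measured by cDNA display proteolysis with trypsin and chymotrypsin. Each protease was used at 11 concentrations in a threefold dilution series plus a no-protease condition. K50 was inferred by Bayesian fitting of sequencing counts, and dG unfold was derived against a sequence-predicted unfolded-state K50 (Tsuboyama et al. method). Sequences shown include variable-length N-terminal GS-type padding (SAGGSAGG...) inside a display construct carrying a PA tag. Rows were kept only if the AF2 dimer inter-PAE was >15, to exclude likely homo-oligomers.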

| Sequence | folding stability dG unfold [kcal/mol] |
| --- | --- |
| SAGGSAGGSAGGSMKISLEFKVPIYEEFPGKEKPVEEVEVPVEVPENNEEEAEKIKKELSAGGSAGGSAGGS [r4_153_JUSTAS] | < -1 |
| SAGGSAGGFTFRDPENGRKITIEPQPNPDGPMYYNIEVRDPDNNENKTINFPMPLNEIEDLAKDSAGGSAGG [r6_996_TrROS] | < -1 |
| SAGGSAGGSAGGSQNEVQIPFNNMPPQQARNIADEALDKNKDIENIEVERDDGMFKVKVSAGGSAGGSAGGS [r4_330_TrROS] | < -1 |
| SAGGRYLTLRIPPNHPGDIDIEPVPADDMPPGWGYKIYSPKKGHTQTFPLDNADELLDHPGIDEIEPVSAGG [r19_302_TrROS] | < -1 |
| SSLDDLSPEQAVDQAKFMVRMIRESRDNGKPEQYPKMINMLRRMASSAPPPDRKAVKEVLEEFKIPPEWFSA [r9_182_TrROS] | < -1 |
| SVVTPYPDGTVVETEPVGDTVLRLVRRPRPLPGGEPVERTTVVLEPVSTRPLPNGELVTERPVLEEEHHHSA [r9_235_JUSTAS] | < -1 |
| YEIKDVEFPPYEHPGQEYPMFKIEVKDENGKPKKKVYINPNSGQLIPPGQSLEDMPMPPPFRKFAKELADES [r1_354_TrROS] | < -1 |
| SAGGSAGGSAGGSVKTPEGVEVAPDEPVEERVEHPPVARPVKVTLYALPNSNEYSEEIASAGGSAGGSAGGS [r4_13_JUSTAS] | < -1 |
| SAGGSAGGSAGGSGNFTIDPALLEEARAEAAAAGEALETIPLKVTRPGGETKTIDIKVGSAGGSAGGSAGGS [r4_367_JUSTAS] | < -1 |
| SAGGPPKKIEDIKIEDWRYDPENNQVTNTIELENDNGKEREIDVQMPNEDMEDMPPEEMLKAAKDFIDSAGG [r13_512_TrROS] | < -1 |
| SAGGSAGGSAGGKIEVEEDPANGMYRVEIQFPENGKPIEVWVRPGRTLEKAKDKAKELMKSAGGSAGGSAGG [r7_138_TrROS] | < -1 |
| SAGGSAGGMKITEVTSEAPVPETGEVVRVAKTEDGSTITTVEYPGTGETRVYREKPDEVTPIALSAGGSAGG [r6_796_JUSTAS] | -0.865 ± 0.79 |
| SAMVKTKDGKELEITRKAKPDELTEEEIKALAEEEVKKLVPEDLEVEVEVEISREPDGTYVVSVPVKKKSAG [r14_389_JUSTAS] | < -1 |
| SAGGSAGGSAKIKVEWEQHPEGYNLVKVEIPNPDNGKKKKVEGPFDSLEDAEDEAKELLKKSAGGSAGGSAG [r3_174_TrROS] | < -1 |
| SPEGKDEKGVSYPIIVEKPDPKITPEKIKKAIEEAGGKVTKIVRPKKGKLLVVDVEVTDPEKAIEAIKKDSA [r9_1154_TrMRF] | < -1 |
| SAGMFYVLKTKRPTPSAPPEVLAADPNAEVETEYKLSPDTSEEEIKKIKEELKNKGWKEVKLVPISELKSAG [r5_60_JUSTAS] | < -1 |
| SAGGGGMTVEPVAERRFPSGRRITFYRRELPTPTVLEDVVVEYPDGSVRTITVPVGEEAAAVAAVLASAGGS [r16_588_JUSTAS] | < -1 |
| SAGGSAGGSAGGWYISIEPKNKKEKTIMIPPGDPDILEELADNGDRVSIFDPKNGKEFKVSAGGSAGGSAGG [r7_430_TrROS] | < -1 |
| SAGGSAGGSRTFRSPSGVRYTETSSVLETSPDPENGLWSTVTSSVVSVDPGPPAPPPPLSPALVSAGGSAGG [r6_939_JUSTAS] | < -1 |
| SAGGSAGGSAEEISPEGVATRTLPDGRTVELTQDPAKGTVTTTVYTPSGTPVSSSTTPVNPSAGGSAGGSAG [r3_447_JUSTAS] | < -1 |

| Sequence | folding stability dG unfold [kcal/mol] |
| --- | --- |
| SAGGSAGGAEAVEAAKAKLPPDEERTVVVPDPDDPSRVTTYTLTARGDEVEVPVTTEPVPPGLESAGGSAGG [r6_393_JUSTAS] | < -1 |
| SAGGSAFFRIKVEKNNGKKREIMFPIPENHDPSEAREMVKELAKNIARKQGHPNVPIKVTDIEPFPSAGGSA [r15_463_TrROS] | < -1 |
| SDPQQLPPELIDNIAKEFPHIKAIEIQPHPPGMVHVDAEYRDDGKEKRVEFQIPNPNGNTHQFEIEIRKPSA [r9_678_TrROS] | < -1 |
| SAGGSAGGSAGGMVSISVSEDPATGTYTVTATRTGAPRTVTVPVGASEAEARARVEAALSAGGSAGGSAGGS [r10_192_JUSTAS] | < -1 |
| SAGGSAGGSAYKLKDITMRRMPNGYHEVEIKVDNGKKIDVTIPPDNPGRSIEEFAKEVLDNSAGGSAGGSAG [r3_368_TrROS] | < -1 |
| SAGGSAGGSAGGMKVVFNIHRPDSDEVLTVDDMEKLKETSLEELAKKLEEENGYPVEVVLSAGGSAGGSAGG [r7_259_JUSTAS] | < -1 |
| SAGGSAGGSAGGGSSMPLIPRKIETVEKPFRLPNGDVVIETTEIDTDADVEIPSVEVVLKSAGGSAGGSAGG [r7_213_JUSTAS] | < -1 |
| SAGGVSIEKDVTSSDELLAALPPDRPVRIEYTPPDGSSRELEVDPADLSLDIPAGVKYKVRIEVLPPESAGG [r13_461_JUSTAS] | < -1 |
| SVRPDEPVRITVRFPARPVTRYRARPTGPFLGAEPVPVPSATLTLTVPAADLEAVLDALRPLGVEVEVDPSA [r9_167_TrMRF] | < -1 |
| SAGGSAGGSAMPVVEIGLEMEPYEPEAGGKLMLVPIKDNLLPEHALAAARLLEPLGVVTAPSAGGSAGGSAG [r3_157_TrMRF] | < -1 |
| SAGGVDLSTLPSNSTVTLTEEKVIPVTKGSPKGSGKGYIETTTTTYTAVPPTGTWLSTTTPSISIIESAGGS [r8_486_JUSTAS] | < -1 |
| SAGGSAGGSAGGGHMIYVPPSATLEEAEKLAKELGIEDAEIIPVPEGEPLFFTPEWKLVSAGGSAGGSAGGS [r10_1083_JUSTAS] | < -1 |
| SAGGSAGGSAVLRSALDRPVPVLLLTVPRDEVPEEEIRSLLPPELAEQFLKTAPKDSVIVASAGGSAGGSAG [r3_326_TrMRF] | < -1 |
| SAGGSAGGSASEIDELLAAGYTVLVKPPDGSEKVIKPGDTASNLDETFNLSPDAEFVIEPKSAGGSAGGSAG [r3_216_JUSTAS] | < -1 |
| SAGGSAGGSAGGPPFQIHIRDKGEERTIPVDSPDDIKELLEEKGAEIKDVHPNSGTITVKSAGGSAGGSAGG [r7_726_TrROS] | < -1 |
| SAGGSAGGSAGGTVEELAKQIQEEWQENGFKVEKVEVEDGTIKIEWKNGRQREIPFEKGSAGGSAGGSAGGS [r10_169_TrROS] | < -1 |
| SAGGSAGGSAGPDDFVTLTETIVEEIDPNLAELPPEVAERLVKEGVKVIEKVLTKVAPPSLLSAGGSAGGSA [r18_127_JUSTAS] | < -1 |
| WIRIPNGQPFRIKAKMKNPDGDDRKHTGKIPMEELGQKNGRPITPEDILDEIKEEARDHGAPVEDVEIEYYS [r1_338_TrROS] | < -1 |
| SAGGSAGGSAGGPIKIDVQVMPHDNEWYIMIRREYPYPDGKRQEREIMIPADNVKDLDDISAGGSAGGSAGG [r7_835_TrROS] | < -1 |
| SAGGSAGGSAGGMELPNLVPVETVPVGDSTVRLYELPGKPLRVTVTENGDNVTVELEEPPSAGGSAGGSAGG [r7_940_JUSTAS] | < -1 |

| Sequence | folding stability dG unfold [kcal/mol] |
| --- | --- |
| SAGGSAGGSAGKIRIDARPNGNWRAHYPGGKEHEFNSPDDIKDELEKKFPNFDIIEIEPWSAGGSAGGSAGG [r11_806_TrROS] | < -1 |
| SAGGSAGGSAPKLKFETEPYPNGGYYHKVKIDLEGPKIPITIPVNNNQPMPIEDFAKHILKKSAGGSAGGSA [r18_111_TrROS] | < -1 |
| SAGGMTSEVIETTEEEPERLIKKTFKVTYDENGTPKPELLKVETSPVPEEEIDPSNAPKEKAEKLGLLSAGG [r13_964_JUSTAS] | < -1 |
| SAGGMVVELPSGLSPEELERAAEEIAAELPRRGVDPVEVTIEPVREVAPPDGPPVRLYRITIDTVPPSAGGS [r16_266_JUSTAS] | < -1 |
| SAGGSAGGSPGNIPINIKIEPYDPDGGEKRKRTIPFPFQDPEGARRHLNKIADEFPPGWRVEISAGGSAGGS [r20_211_TrROS] | < -1 |
| SAGGSAGGSAGGPTVTYKPPSGNVRTVEVPASRPEVVAELKAAGGEVVVVDAETGEEVLLSAGGSAGGSAGG [r7_430_JUSTAS] | < -1 |
| SAGGSAGGSAGGSVVPPGAKVKVTLEGEEKVVEADSLSEIGEIKIGDKWVKVKKIEVEGSAGGSAGGSAGGS [r4_214_TrMRF] | < -1 |
| SAGGSAGGMPLRVDFRPSDSDEVTTRELPLTGDEEEARARVEAAAPPGVASVDLDPEAFRAAAASAGGSAGG [r6_889_JUSTAS] | < -1 |
| SAGAKLYTVKAPGSSELLKGLKEKGVEILGTEENVVVVKVPVVPPLTPEAIEEAKKEGLTLEEAIKKASAGG [r19_115_TrMRF] | < -1 |
| SAGGSAGGSAGGQPITLPDANNGFKEVEIMPTPKKWRITAENPETGQKKEFPIEDPEAVSAGGSAGGSAGGS [r10_772_TrROS] | < -1 |
| SAGGSAEKPIPFGNYQIRIHEIDPKEGKITIHVPDNMPPNMKEQARDWLQERGLPIEVEPVPAEDISAGGSA [r15_570_TrROS] | < -1 |
| SAGGSAGGSAGYIMIKSPEMAEEMAKPGYEIEVEPVPPKDINNGDPNDTMYIIEIKPPGKSAGGSAGGSAGG [r11_168_TrROS] | < -1 |
| SAGGSAGGSAGGSGNGMKLVKKKEVVKEEGAVVKLPNGETIEVPPDETITVEIEEEVSLSAGGSAGGSAGGS [r4_26_JUSTAS] | < -1 |
| SAGMVKEVKSEEEAKKLPPGTLVKLTKPDPTSNKDVTYYRTYPDGSGGILAKSDSSGKVDLTPEIKKILSAG [r5_490_JUSTAS] | < -1 |
| PIITVSSLEELKKAIKELVEKIVEEAKKAGYPDKKVIVSIPVVLIDEKTGKPKILPILIEIYPDGTVKIYGS [r1_316_TrMRF] | > 6 |
| SAGPKINLYRLPNGFLAAKSRSTRPDGKELGTWEKTYLVPGSGKPRTLELPIYDNEKGYVIYAYEEDYSAGG [r19_185_TrMRF] | < -1 |
| SAGGMRLADTLEEVENAAPGEIVALRAPDPLTPRPVVLVFRNPDGELGPLAYADADGNIHLPEELKEAGSAG [r5_490_TrMRF] | < -1 |
| SAGGSAGGSSEKEEKIRNIIKENFPENVIKKVEFNNDIVKIYGIPEYVKKAKEKLGSKNFIENSAGGSAGGS [r12_748_TrMRF] | < -1 |
